Consider eight molecules from US20240262910A1 (Memorial Sloan Kettering, published 2024).

Assay [1] concerns the target T1, human CD33 extracellular domain with 6xHis-tag (human, UniProt P20138 18-259).
T1 construct: Bought (R&D Systems, Acro Biosystems); also called huCD33-His; huCD33(ECD)-His
Nature of the assay: ELISA, hybridoma supernatant. (An ELISA detects its analyte on a solid surface through an enzyme-linked reagent.)

Assay [2] addresses T2, human CD33 IgC2 type domain with 6xHis-tag (human, UniProt P20138 140-259).
T2 construct: Produced at LakePharma; also called huCD33IgC2-His; CD33 IgC2-6xHis
Put plainly: ELISA, hybridoma supernatant.

The target of assay [3] is T3, human CD33, full length, on cells (human, UniProt P20138 18-364).
T3 construct: NIH-3T3 cells stably overexpressing full-length human CD33, or AML lines U937 and Set2 with endogenous CD33; the cell line is named under assay; also called 3T3-huCD33; 3T3-CD33
Put plainly: flow cytometry, hybridoma supernatant, U937 cells. In general terms: Flow cytometry measures light scatter and fluorescence of single cells or particles in a stream.

Assay [4] has as its target T3, human CD33, full length, on cells. Nature of the assay: flow cytometry, purified mAb, U937 cells.
The target is the same in assay [5]. Nature of the assay: flow cytometry, hybridoma supernatant, 3T3-huCD33 cells.
For assay [6] the target is unchanged. Nature of the assay: flow cytometry, purified mAb, Set2 cells.
Assay [7] addresses T4, mouse CD33 extracellular domain with 6xHis-tag (mouse, UniProt Q63994 18-240).
T4 construct: range 18-240; also called moCD33-His; moCD33(ECD)-His
T4 sequence: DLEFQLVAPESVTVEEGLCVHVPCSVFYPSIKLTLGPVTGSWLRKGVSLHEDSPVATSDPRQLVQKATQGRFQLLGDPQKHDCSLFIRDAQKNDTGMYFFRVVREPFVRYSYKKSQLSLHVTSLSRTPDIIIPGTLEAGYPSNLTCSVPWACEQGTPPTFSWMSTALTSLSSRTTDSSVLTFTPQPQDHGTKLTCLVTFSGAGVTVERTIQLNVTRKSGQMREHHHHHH
Put plainly: ELISA on recombinant moCD33-His, purified hybridoma subclone antibody, readout RLU; antibody concentration not given.

Assay [8] has as its target T3, human CD33, full length, on cells. Nature of the assay: flow cytometry, 3T3-CD33 cells. The method, then: (§1) Binding to CD33 on Cells. To assess the binding of TDI-Y-006, TDI-Y-007 and 1J19 to cell surface-bound CD33, 3T3 cells overexpressing CD33, as well as the U937 AML cell line, which expresses endogenous CD33, were used. U937 CD33KO or NALM6 were included as negative controls. Briefly, NALM6, U937 CD33+ and KO cells were blocked with human IgG Fc for 20 minutes on ice. The recombinant antibodies were then serially diluted starting at 100 μg/mL concentration and added for 30 minutes on ice. AlexaFluor 647-conjugated goat anti-human F(ab′)2 was added to cells for 30 minutes on ice, washed and analyzed by flow cytometry, normalized to secondary only staining (MFI ratio). EC50 values were determined by non-linear regression.

Assay [9] deals with T1, human CD33 extracellular domain with …. Nature of the assay: BLI (Octet Red96e), antibody on anti-huFc sensor, huCD33-His as analyte, 1:1 fit. The method, then:
The binding affinity to human CD33 protein was measured by biolayer interferometry (BLI) using an Octet Red96e. All experiments were carried out using kinetic buffer (PBS pH 7.4, 0.01% BSA, 0.002% Tween-20). The antibodies were captured by an anti-huFc biosensor and a 7-point, 2-fold dilution series of huCD33-His was used as analyte. The data was processed by double reference subtraction, and response curves were globally fit to a 1:1 Langmuir binding model. […] The binding affinities are similar to the H195 reference antibody.
(In BLI a coated tip is dipped into the sample, and binding shifts an interference pattern.)

In assay [10] the target is T3, human CD33, full length, on cells. Nature of the assay: flow cytometry, U937 cells. As to the method:
as §1

Assay [11] has as its target T1, human CD33 extracellular domain with …. Nature of the assay: BLI, huCD33-His on anti-penta-His sensor, no competitor. As to the method:
Epitope Binning. Epitope binning was carried out by a BLI competition experiment using an Octet Red96e. Human CD33-His was captured by an anti-penta-His biosensor. A 4×4 matrix with TDI-Y-006, TDI-Y-007, 1J19 and H195 was tested. A reference biosensor was used to determine the overall capture level for each antibody. After pre-binding the antibodies at saturation levels, the biosensors were dipped into antibody solutions to assess competition. […] However, when TDI-Y-006 was pre-bound, binding of TDI-Y-007 was blocked. […] Similarly, 1J19 and H195 have epitopes that partially overlap. No competition was observed between antibodies binding to the membrane-proximal IgC2 domain (TDI-Y-006 and TDI-Y-007) and antibodies binding to the membrane-distal IgV domain (1J19 and H195).

Assay [12] has as its target T5, human CD33 IgC2 domain only, on NIH-3T3 cells (human, UniProt P20138 140-364).
T5 construct: the whole entry is named here; also called 3T3-huCD33IgC2; 3T3 CD33-IgC2
Put plainly: flow cytometry, hybridoma supernatant, 3T3-huCD33IgC2 cells, MFI.

Assay [13] concerns the target T2, human CD33 IgC2 type domain with …. Nature of the assay: ELISA, hybridoma supernatant, RLU.

T2 sequence (P20138 other isoform, or with tags, fused parts or gaps): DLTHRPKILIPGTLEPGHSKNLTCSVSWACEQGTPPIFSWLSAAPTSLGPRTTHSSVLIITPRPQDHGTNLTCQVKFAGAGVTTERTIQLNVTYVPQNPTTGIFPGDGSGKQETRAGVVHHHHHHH
T3 sequence (P20138 18-364): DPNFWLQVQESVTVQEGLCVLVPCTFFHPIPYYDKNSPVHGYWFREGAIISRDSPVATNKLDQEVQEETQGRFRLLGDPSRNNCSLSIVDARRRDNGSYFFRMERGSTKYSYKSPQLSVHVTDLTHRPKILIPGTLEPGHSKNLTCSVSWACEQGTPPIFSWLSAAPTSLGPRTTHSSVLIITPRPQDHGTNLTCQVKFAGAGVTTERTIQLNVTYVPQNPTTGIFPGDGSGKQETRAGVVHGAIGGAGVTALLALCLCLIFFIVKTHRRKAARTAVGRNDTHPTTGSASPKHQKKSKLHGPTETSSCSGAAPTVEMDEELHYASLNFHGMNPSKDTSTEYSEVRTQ
T1 sequence (P20138 other isoform, or with tags, fused parts or gaps): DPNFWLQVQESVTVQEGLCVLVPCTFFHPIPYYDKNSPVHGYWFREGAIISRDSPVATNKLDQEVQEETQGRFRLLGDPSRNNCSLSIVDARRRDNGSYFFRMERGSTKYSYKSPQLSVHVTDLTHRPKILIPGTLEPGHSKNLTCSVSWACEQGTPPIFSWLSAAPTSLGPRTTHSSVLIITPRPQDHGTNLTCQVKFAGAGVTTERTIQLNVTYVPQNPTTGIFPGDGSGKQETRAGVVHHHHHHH
T5 sequence (P20138 140-364 limits assumed): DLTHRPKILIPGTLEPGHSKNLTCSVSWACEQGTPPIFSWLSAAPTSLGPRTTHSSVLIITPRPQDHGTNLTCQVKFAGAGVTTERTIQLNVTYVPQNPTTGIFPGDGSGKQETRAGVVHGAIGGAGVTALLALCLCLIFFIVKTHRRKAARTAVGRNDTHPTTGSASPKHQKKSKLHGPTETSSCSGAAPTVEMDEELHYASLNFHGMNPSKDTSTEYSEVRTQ

B1: 2-F18 (antibody, V domains shown)
VH: QIQLVESGGGVVQPGRSLRLSCAASGFTFSAYPMHWVRQAPGKGLEWVAIISYDGSNNYYADSVKGRFTISRDNSKNTMYLQINSLRAEDTGVYYCARGKVGTLDFWGQGTLVTVSS
VL: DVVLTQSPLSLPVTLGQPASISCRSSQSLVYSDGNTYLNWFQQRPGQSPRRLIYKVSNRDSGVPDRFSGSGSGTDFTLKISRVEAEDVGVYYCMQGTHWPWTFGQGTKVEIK
notes: AlivaMab mouse hybridoma antibody; also called 2-F18-A
As a reminder, the EC50 is the concentration needed to bring the measured effect to its halfway point. Low readings indicate higher potency in that assay, high ones lower potency in that assay. B1: the RLU turned out to be 251000 RLU in assay [1] and 20400 RLU in assay [2]. For the same molecule, the MFI is 351000 MFI in assay [3] and 3.56e+06 MFI in [5]. The EC50 in assay [4] worked out at 11.9 nM; in assay [6], 24.2 nM. Moreover, the binding result in assay [7] is on record as “no binding”.

B2: H195 (lintuzumab) (antibody, V domains shown)
VH: QVQLVQSGAEVKKPGSSVKVSCKASGYTFTDYNMHWVRQAPGQGLEWIGYIYPYNGGTGYNQKFKSKATITADESTNTAYMELSSLRSEDTAVYYCARGRPAMDYWGQGTLVTVSS
VL: DIQMTQSPSSLSASVGDRVTITCRASESVDNYGISFMNWFQQKPGKAPKLLIYAASNQGSGVPSRFSGSGSGTDFTLTISSLQPDDFATYYCQQSKEVPWTFGQGTKVEIK
As a reminder, the Kd is the constant that tells how readily two partners part at equilibrium. The kon is a measure of how fast the partners come together. A higher kon goes with faster complex formation. Turning to B2, it took 4.8 nM to reach a half-maximal effect in assay [8] (EC50). In [9], this molecule showed a Kd of 1.22 nM and an association rate constant (kon) of 358000 M⁻¹ s⁻¹. The EC50 in assay [10] amounted to 0.4 nM. For the same molecule, in assay [11], the “BLI total binding capacity (Reference Biosensor)” value came to 0.743.

B3: 1-P23 (antibody, V domains shown)
VH: QVQLVESGGGVVQPGRSLRLSCAASGFTFNSYGMHWVRQAPGKGLEWVAIISYDGSNKYYADSVKGRFTISRDNSKNTLYLQMNSLRAEDTAVYYCARDNYDSSGYNWYFDLWGRGTLVTVSS
VL: SSELTQDPAVSVALGQTVRITCQGDSLRSYYASWYQQKPGQAPVLVIYGKNNRPSGIPDRFSGSSSGNTASLTITGAQAEDEADYYCNSRDSSGNLWVFGGGTKLTVL
notes: AlivaMab mouse hybridoma antibody; also called 1-P23-A
Take B3: the RLU in [1] worked out at 41800 RLU. Moreover, the values for the binding result in assay [12], in assay [13] and in assay [7] were “no binding (tested: A signal >100,000 was used as cut off)”, “no binding” and “no binding”, respectively. For the same molecule, the MFI in assay [3] amounted to 456000 MFI; in [5], 4.08e+06 MFI. For the same molecule, the figures for the EC50 in assay [4] and in [6] were 1.07 nM and 1.4 nM, respectively.

B4: 1-J19 (hybridoma antibody) (antibody, V domains shown)
VH: QVQLQQSGPGLVKPSQTLSLTCAISGDSVSSNSAAWNWIRQSPSRGLEWLGRTYFRSKWYNVYAVSVKSRITINPDTSKNQFSLQLNSVTPEDTAVYYCASEGGSYYDHWGQGTLVTVSS
VL: DIQMTQSPSSVSASVGDRVTITCRASQGISNWLTWYQQKPGKAPKLLIYAASSLQSGVPSRFSGSGSGTDFTLTISSLQPEDFATYYCQQADSFPFTFGPGTKVDIK
notes: AlivaMab mouse hybridoma antibody; also called 1-J19-A
In the case of B4, the RLU is 95600 RLU in assay [1] and 15200 RLU in assay [2]. Also, the binding result in assay [12] is recorded as “no binding (tested: A signal >100,000 was used as cut off)”. The figures for the MFI in [3] and in assay [5] were 339000 MFI and 3.86e+06 MFI, respectively. Further, the EC50 in [4] turned out to be 10.2 nM; in [6], 7.93 nM.

B5: 1-A20 (antibody, V domains shown)
VH: QVQLQESGPGLVKPSETLSLTCTVSGDSISSYYWSWIRQPAGKGLEWIGRIYTSGNTNYNPSLKSRVTMSVDKSKNQFSLKLRSVTAADTAVYYCARDGDNRDSDAFDIWGQGTMVTVSS
VL: SPGTLSLSPGERATLSCRASQNISSSYLAWCQQKPGQAPRLFIYGTSRRATGIPDRFSGSGSGTDFTLTISRLEPEDFAVYYCQQYGSSPLTFGGGTKVEIK
notes: AlivaMab mouse hybridoma antibody; also called 1-A20-A
In turn, B5 showed an RLU in assay [1] of 117000 RLU. Further, the binding result in assay [12] is listed as “no binding (tested: A signal >100,000 was used as cut off)”; in assay [13] it was “no binding”; in assay [7] it was “no binding”. Also, the MFI in [3] was 558000 MFI; in assay [5] it was 1.98e+06 MFI. In addition, the EC50 in assay [4] was 0.6 nM; in [6], 0.4 nM.

B6: 1-H19 (antibody, V domains shown)
VH: QVQLQESGPGLVKPSETLSLTCTVSGGSISTYYWSWIRQPAGKGLEWIGRIYTSGNTNYNPSLKSRVTMSVDTSKNQLSLKLRSVTAADTAVYYCARDGDNRNSDAFDIWGQGTMVTVSS
VL: QSVLTQPPSVSGAPGQRVTISCTGSSSNIGAGYDVHWYQQLPGTAPKLLIYGNSNRPSGVPDRFSGSKSGTSASLAITGLQAEDEADYYCQSYDRSLSGWVFGGGTKLTVL
notes: AlivaMab mouse hybridoma antibody; also called 1-H19-A
B6: the results for the RLU in [1] and in assay [2] were 132000 RLU and 58900 RLU, respectively. In addition, the values for the MFI in assay [3] and in assay [5] were 479000 MFI and 1.75e+06 MFI, respectively. The EC50 came to 0.866 nM in assay [4] and 0.4 nM in [6]. Moreover, the binding result in assay [7] is on record as “no binding”.

B7: 1-P13 (antibody, V domains shown)
VH: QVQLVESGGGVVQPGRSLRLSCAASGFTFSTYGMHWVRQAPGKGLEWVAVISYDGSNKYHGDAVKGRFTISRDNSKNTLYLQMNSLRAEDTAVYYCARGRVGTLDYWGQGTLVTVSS
VL: DVVMTQSPLSLPVSLGQPASISCRSSRGLVYSDVNTNLNWFQQRPGQSPRRLIYKVSNRDSGVPDRFSGSGSGTDFTLKISRVEAEDVGVYYCMQGTHWPWTFGQGTKVEIK
notes: AlivaMab mouse hybridoma antibody; also called 1-P13-A
In turn, B7 registered an RLU in [1] of 117000 RLU. Besides, the MFI is 559000 MFI in assay [3] and 2.15e+06 MFI in assay [5]. In addition, the EC50 was found to be 6.33 nM in assay [4] and 5 nM in assay [6]. The binding result in assay [13] and in assay [7] was “no binding” each time.

B8: 2-N3 (antibody, V domains shown)
VH: EVQLVQSGADVKKPGESLKISCKGSGFSFTSHWIAWVRQMPGKGLEWMGIIYPGDSDTRYSPSLQGRVTISADKSISTAYLQWSSLKASDTAMYFCARHETGNGYSYGMDVWGQGTTVTVSS
VL: DIVMTQSPLSLPVTPGEPASISCRSSQSLLHSNGYNYLDWYLQKPGQSPQLLFSLGSNRASGVPDRFSGSGSGTDFSLKISRVEAEDVGLYYCMQALQPPLTFGGGTKVEIK
notes: AlivaMab mouse hybridoma antibody; also called 2-N3-A
B8 registered an RLU in [1] of 724000 RLU. Also, the binding result is recorded as “no binding (tested: A signal >100,000 was used as cut off)” in assay [12], “no binding” in assay [13] and “no binding” in assay [7]. The MFI stood at 409000 MFI in assay [3] and 4.21e+06 MFI in assay [5]. The EC50 in assay [4] amounted to 0.4 nM; in assay [6], 0.466 nM.
